From paper PMC9163188, “USP53 plays an antitumor role in hepatocellular carcinoma through deubiquitination of cytochrome c” (Oncogenesis, 2022)

T1: GST-HA-USP53 (UniProt Q70EK8 1-1073)
T1 construct: also called GST-HA-USP53 fusion protein; source: E. coli, purified
T1 sequence (looked up): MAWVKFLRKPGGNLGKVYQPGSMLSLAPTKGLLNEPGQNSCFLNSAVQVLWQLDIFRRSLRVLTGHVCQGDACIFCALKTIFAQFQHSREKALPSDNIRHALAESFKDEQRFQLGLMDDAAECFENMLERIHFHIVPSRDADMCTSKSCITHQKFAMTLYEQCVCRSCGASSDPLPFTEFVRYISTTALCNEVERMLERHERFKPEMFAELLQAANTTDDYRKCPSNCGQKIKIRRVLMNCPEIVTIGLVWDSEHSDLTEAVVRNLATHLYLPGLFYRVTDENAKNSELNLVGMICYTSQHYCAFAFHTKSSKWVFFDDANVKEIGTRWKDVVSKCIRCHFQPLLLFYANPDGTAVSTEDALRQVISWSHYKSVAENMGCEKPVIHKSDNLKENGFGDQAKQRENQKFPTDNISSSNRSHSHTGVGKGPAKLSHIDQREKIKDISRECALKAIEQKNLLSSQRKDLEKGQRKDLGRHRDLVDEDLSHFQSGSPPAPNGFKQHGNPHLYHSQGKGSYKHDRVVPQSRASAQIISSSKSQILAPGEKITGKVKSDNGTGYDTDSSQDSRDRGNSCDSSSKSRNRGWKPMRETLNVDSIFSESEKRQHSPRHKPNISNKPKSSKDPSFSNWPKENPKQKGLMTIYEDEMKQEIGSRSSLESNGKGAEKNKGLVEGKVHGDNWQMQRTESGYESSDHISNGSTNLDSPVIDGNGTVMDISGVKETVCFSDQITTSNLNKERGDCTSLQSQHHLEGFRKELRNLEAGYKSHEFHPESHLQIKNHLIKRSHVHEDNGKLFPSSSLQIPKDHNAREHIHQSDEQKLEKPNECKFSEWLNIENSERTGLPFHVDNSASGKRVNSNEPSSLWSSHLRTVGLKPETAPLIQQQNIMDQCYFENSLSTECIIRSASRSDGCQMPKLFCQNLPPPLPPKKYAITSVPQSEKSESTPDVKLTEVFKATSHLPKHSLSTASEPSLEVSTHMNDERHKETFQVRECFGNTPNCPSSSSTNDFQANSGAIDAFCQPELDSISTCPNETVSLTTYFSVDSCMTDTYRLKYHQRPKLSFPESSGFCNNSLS

T2: Flag-USP53 (of the GST pull-down) (UniProt Q70EK8 1-1073)
T2 construct: ubiquitin-specific peptidase 53 (USP53); If it came from transfected HEK-293T cells it would be the same construct as m1
T2 sequence (looked up): T1 sequence (looked up)

B1: Flag-CYCS (natural protein)
chain: not shown
notes: cytochrome c (CYCS); plasmid provided by …; also called Flag-CYCS fusion protein; source: E. coli (plasmid transfected into E. coli)
B2: GST-HA-CYCS (natural protein)
chain: not shown
notes: cytochrome c (CYCS); plasmid provided by …; also called GST-HA-CYCS fusion protein; source: purified (same method as for GST-HA-USP53: E. coli)

Experiments:
GST-HA-USP53 = biological target: T1, GST-HA-USP53; assay: pull-down; about 100 µg GST-HA-USP53 (or GST-HA) on 50 µL glutathione agarose, 3 washes with PBST, about 100 µg Flag-CYCS fusion protein added, overnight at 4 °C; eluted with 10 mM glutathione in PBS pH 8.0, immunoblot; details: both partners purified
[1] = biological target: T2, Flag-USP53 (of the GST pull-down); assay: pull-down; purified GST-HA-CYCS on glutathione agarose, Flag-USP53 added; same method as for GST-HA-USP53 with Flag-CYCS; details: both partners purified

Row | Binder | binding result (GST-HA-USP53) | binding result [1]
1 | B1 | binds | –
2 | B2 | – | binds
